The text below walks through data of article PMC5573325.

In assay [1] the target is integrin αIIbβ3 (human (endogenous in platelets)) (UniProt P08514). The assay is described as follows: flow cytometry on cells; FITC-triflavin (2 µg/ml) added to resting washed human platelets treated with 0.3 µM TQ-6. (In flow cytometry, cells or beads pass a laser one at a time.)
Assay [2] has the same target. The assay is described as follows: flow cytometry on cells; FITC-triflavin (2 µg/ml) added to resting washed human platelets (3.6 × 10^8 cells/ml) in Tyrode's solution, 3 min; no additive (positive control).
For assay [3] the target is unchanged. The assay is described as follows: flow cytometry on cells; FITC-triflavin (2 µg/ml) added to resting washed human platelets treated with 0.5 µM TQ-6.

Chain of UniProt P08514 (P08514 32-1039, chain 1 of 2): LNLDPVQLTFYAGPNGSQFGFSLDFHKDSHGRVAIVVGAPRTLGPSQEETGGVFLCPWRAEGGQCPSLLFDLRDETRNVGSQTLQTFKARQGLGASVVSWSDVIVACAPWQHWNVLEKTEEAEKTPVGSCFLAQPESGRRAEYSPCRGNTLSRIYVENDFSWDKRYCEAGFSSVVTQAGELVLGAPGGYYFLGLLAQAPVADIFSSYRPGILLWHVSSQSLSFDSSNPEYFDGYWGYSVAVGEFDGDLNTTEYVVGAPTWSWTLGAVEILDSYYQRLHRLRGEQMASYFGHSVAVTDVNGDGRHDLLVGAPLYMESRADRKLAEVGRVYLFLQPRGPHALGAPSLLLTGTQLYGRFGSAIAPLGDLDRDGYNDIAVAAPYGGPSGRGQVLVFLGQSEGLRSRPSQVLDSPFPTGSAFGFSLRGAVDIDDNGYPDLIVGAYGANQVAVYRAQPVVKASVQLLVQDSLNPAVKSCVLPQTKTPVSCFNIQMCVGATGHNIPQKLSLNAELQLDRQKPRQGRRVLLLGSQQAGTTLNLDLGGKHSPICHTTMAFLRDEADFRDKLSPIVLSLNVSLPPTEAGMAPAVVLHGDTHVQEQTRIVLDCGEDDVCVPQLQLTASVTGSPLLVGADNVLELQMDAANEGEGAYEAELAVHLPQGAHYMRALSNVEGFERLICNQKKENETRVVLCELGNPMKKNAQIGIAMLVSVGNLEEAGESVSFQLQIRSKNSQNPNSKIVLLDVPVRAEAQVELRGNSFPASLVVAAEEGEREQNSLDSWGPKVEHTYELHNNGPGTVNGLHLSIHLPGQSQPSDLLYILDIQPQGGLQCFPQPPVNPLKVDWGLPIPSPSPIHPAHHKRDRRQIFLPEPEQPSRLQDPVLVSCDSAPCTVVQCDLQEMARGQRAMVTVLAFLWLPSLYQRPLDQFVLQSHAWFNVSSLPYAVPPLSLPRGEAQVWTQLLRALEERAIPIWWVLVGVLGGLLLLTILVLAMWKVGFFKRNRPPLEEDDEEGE
Chain of UniProt P08514 (P05106 27-788, chain 2 of 2, further chain): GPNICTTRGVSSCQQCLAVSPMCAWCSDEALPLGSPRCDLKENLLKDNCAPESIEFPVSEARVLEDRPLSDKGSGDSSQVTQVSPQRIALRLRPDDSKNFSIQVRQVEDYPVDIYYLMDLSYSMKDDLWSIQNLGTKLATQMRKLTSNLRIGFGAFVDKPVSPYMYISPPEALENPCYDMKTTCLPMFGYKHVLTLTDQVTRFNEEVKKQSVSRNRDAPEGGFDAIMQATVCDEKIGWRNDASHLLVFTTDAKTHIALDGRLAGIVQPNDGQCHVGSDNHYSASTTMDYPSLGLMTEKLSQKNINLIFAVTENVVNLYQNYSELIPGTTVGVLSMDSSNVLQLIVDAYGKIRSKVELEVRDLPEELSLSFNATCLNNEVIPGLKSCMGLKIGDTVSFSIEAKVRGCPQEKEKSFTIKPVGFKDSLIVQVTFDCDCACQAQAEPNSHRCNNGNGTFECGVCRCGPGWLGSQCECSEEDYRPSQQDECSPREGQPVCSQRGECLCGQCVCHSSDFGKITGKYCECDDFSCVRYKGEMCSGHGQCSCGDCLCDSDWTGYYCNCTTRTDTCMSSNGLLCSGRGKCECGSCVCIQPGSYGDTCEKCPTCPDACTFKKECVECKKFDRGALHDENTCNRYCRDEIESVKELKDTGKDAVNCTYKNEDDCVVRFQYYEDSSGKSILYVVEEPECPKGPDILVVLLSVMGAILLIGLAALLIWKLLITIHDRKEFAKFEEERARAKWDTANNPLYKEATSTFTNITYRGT

With triflavin (natural protein), the figures for the relative fluorescence intensity in assay [1], in assay [2] and in assay [3] were 1260, 1150 and 1220, respectively.
